Two molecules from patent US20230189773A1, “ENGINEERED CELLS, ANIMAL MODELS, AND USES THEREOF FOR MODELING LOW GRADE GLIOMA (LGG)” (Washington University, priority 2021, published 2023) can be followed below.

“Also recorded” adds a separate entry of the source.

The test system of one test is NF1-null iNPC-LGGs. Put plainly: PD0325901 treatment of Rag1-/- mice harboring NF1-null iNPC-LGGs. The class given is in vivo, mouse. The following applies: 5 mg/kg/day intraperitoneal, 6 days a week, four weeks, from 1 mpi. The procedure: (§1) Twenty 4-week-old Rag1^−/− mice of both sexes harboring NF1-null iNPC-LGGs 1 month post-injection were intraperitoneally injected either with 10% DMSO in saline or with 5 mg/kg/day PD0325901 (Sigma-Aldrich), 6 days a week, for a total of four weeks. Treated mice were collected for histopathologic analysis. For in vitro experiments, iNPCs, iGRPs and iOPCs were treated with 10 nM PD0325901 for 24 h prior to immunocytochemical analysis.
Injected mice were transcardially perfused at 1, 3 or 6 months post-injection, initially with Ringer's solution, and then followed by ice-cold 4% paraformaldehyde. Whole mouse brains were harvested, post-fixed in 4% PFA and dehydrated in 70% ethanol. Dehydrated samples were then paraffin-embedded and serially sectioned (5 μm). Hematoxylin and eosin (H&E), as well as antibody immunohistochemical staining, were performed using the primary antibodies, Vectastain ABC kit (Vector Laboratories) and appropriate biotinylated secondary antibodies provided in TABLE 1.
Immunostaining was performed using the primary antibodies listed in TABLE 1 with appropriate Alexa Fluor-conjugated secondary antibodies. Bis-benzamide (Hoechst) was used as a nuclear counterstain.

Test [1] deals with NF1-null iNPCs, iGRPs and iOPCs. Put plainly: In vitro PD0325901 treatment of iNPCs, iGRPs and iOPCs (Ki67, cleaved caspase-3 immunocytochemistry). The conditions noted are these: 10 nM, 24 h. Type of test: cell-based, human. The procedure:
as §1
(§2) Immunocytochemistry was performed on hiPSCs, iNPCs, iGRPs, iOPCs and astrocytes using the primary antibodies described in Additional file 1: Table 51. […] Appropriate secondary Alexa-Fluor-conjugated secondary antibodies diluted to 1:200 were employed and bis-benzamide (Hoechst) was used as a nuclear counterstain. Cells were mounted with Immu-mount (Fisher) and imaged on a Leica DMi1 fluorescent microscope using the Leica LAS X software, as per manufacturer's instructions.

Test [2] concerns NF1-null iNPCs. Briefly: Direct cell count of NF1-null iNPCs after recombinant Cxcl10. Type of test: cell-based, human. The following applies: for decrease in cell number (direct cell count): NF1-null iNPCs. As for the experimental part:
RAS activity (ThermoFisher), cAMP (Fisher) detection, BrdU proliferation assays (Roche) and direct cell counting were performed according to the manufacturer's instructions. Cxcl10 (Ray Biotech) ELISA assays were performed according to the manufacturer's instructions. Each assay was performed using a minimum of three independently generated biological replicates.
(§3) Cxcl10 cDNA (Sino Biological) and lentiviral packaging vectors, or KIAA1549:BRAF adenoviral DNA, were transfected in HEK293T cells using Fugene HD (Promega) following the manufacturer's instructions. Viral supernatants were collected 48 h post-transfection, filtered, and used to directly infect iNPCs and iGRPs for 24 h. Cxcl10-GFP expression was confirmed by Western blotting as previously described. KIAA1549:BRAF-infected cells were puromycin-selected for 2 weeks prior to further expansion. Infected cells were used for intracranial injections in Rag1^−/− neonatal mice. For cell proliferation, cell death and differentiation analyses, iNPCs were treated with 25 or 100 pg/mL of murine recombinant Cxcl10 (PeproTech) for 24 h. Each experiment was performed a minimum of three times on independently generated samples.

For test [3], the system named is NF1-null iNPCs. Put plainly: Cleaved caspase-3+ cells (programmed cell death) in NF1-null iNPCs after recombinant Cxcl10. Type of test: cell-based, human. The following applies: for increase in programmed cell death (cleaved caspase-3+ cells): NF1-null iNPCs. As for the experimental part:
as §2, §3

Test [4] concerns NF1-null iNPCs. Put plainly: GFAP+ astrocytic differentiation of NF1-null iNPCs after recombinant Cxcl10. The following applies: for increase in GFAP+ astrocytic differentiation: NF1-null iNPCs. The class given is cell-based, human. The procedure:
as §2, §3

[5] abbreviates: relative to vehicle-treated LGGs.
The mark [6] stands for this setting: 25 pg/mL recombinant Cxcl10, 24 h.
Setting [7] is: 100 pg/mL recombinant Cxcl10, 24 h.
[8] abbreviates: range over ectopic Cxcl10 expression or 25 or 100 pg/mL recombinant Cxcl10 (FIG. 19A).
Setting [9] is: range over ectopic Cxcl10 expression and recombinant Cxcl10 treatments (FIG. 19B).

For the molecule `O=C(NOC[C@H](O)CO)c1ccc(F)c(F)c1Nc1ccc(I)cc1F` [PD0325901], in the test with NF1-null iNPC-LGGs, the “presence of Ku80+ iNPC-LGGs after treatment” value is “still detectable”. In the test with NF1-null iNPC-LGGs (setting [5]), the “tumor cell apoptosis (TUNEL+ cells)” value is “increased hiPSC-LGG cell apoptosis; also recorded: increased tumor cell apoptosis” and the “tumor cell proliferation (Ki67+ cells)” value was “reduced tumor cell proliferation; also recorded: decreased”. For the same molecule, in test [1], the “apoptosis (cleaved caspase-3)” value is “increased hiPSC-LGG cell apoptosis; also recorded: increases apoptosis” and the “cell proliferation (Ki67)” value is reported as “reduced proliferation; also recorded: decreased cell proliferation; also recorded: decreases proliferation”.

B1: recombinant murine Cxcl10 protein: murine recombinant Cxcl10 (PeproTech), a cytokine belonging to the CXC chemokine family (protein, UniProt P17515 22-98, looked up)
C-X-C motif chemokine 10: IPLARTVRCNCIHIDDGPVRMRAIGKLEIIPASLSCPRVEIIATMKKNDEQRCLNPESKTIKNLMKAFSQKRSKRAP
On to B1, for which the “decrease in cell number (direct cell count)” value in the test with NF1-null iNPCs [2] (setting [6]) worked out at 9%; with NF1-null iNPCs [2] (setting [7]), 13%. For the same molecule, in the test on NF1-null iNPCs [2] (setting [8]), the “NF1-null iNPC cell numbers decrease (direct cell count)” value is given as 9-20%. Moreover, the “increase in programmed cell death (cleaved caspase-3+ cells)” value in the test on NF1-null iNPCs [3] (setting [6]) stood at 4.6 fold; in the test on NF1-null iNPCs [3] (setting [7]), 20.5 fold. Moreover, in the test on NF1-null iNPCs [3] (setting [8]), the “percent of cleaved caspase-3+ cells increases” value was 8.3-20.5 fold. Also, the “increase in GFAP+ astrocytic differentiation” value is recorded as 8.2 fold with NF1-null iNPCs [4] (setting [6]) and 20.5 fold in the test on NF1-null iNPCs [4] (setting [7]). Moreover, in the test on NF1-null iNPCs [4] (setting [9]), the “differentiated GFAP+ cells undergoing apoptosis (cleaved caspase-3+)” value is 95-100%. The “share of total cells undergoing apoptosis (cleaved caspase-3+) that are GFAP+” value with NF1-null iNPCs [4] (setting [9]) is on record as 83.3-88.8%.
